T1: Human PTK7 Protein, His Tag, Acro Biosystems (human, UniProt Q13308 31-704)
T1 construct: Bought recombinant protein; also called CCK4; not shown: His tag
T1 sequence: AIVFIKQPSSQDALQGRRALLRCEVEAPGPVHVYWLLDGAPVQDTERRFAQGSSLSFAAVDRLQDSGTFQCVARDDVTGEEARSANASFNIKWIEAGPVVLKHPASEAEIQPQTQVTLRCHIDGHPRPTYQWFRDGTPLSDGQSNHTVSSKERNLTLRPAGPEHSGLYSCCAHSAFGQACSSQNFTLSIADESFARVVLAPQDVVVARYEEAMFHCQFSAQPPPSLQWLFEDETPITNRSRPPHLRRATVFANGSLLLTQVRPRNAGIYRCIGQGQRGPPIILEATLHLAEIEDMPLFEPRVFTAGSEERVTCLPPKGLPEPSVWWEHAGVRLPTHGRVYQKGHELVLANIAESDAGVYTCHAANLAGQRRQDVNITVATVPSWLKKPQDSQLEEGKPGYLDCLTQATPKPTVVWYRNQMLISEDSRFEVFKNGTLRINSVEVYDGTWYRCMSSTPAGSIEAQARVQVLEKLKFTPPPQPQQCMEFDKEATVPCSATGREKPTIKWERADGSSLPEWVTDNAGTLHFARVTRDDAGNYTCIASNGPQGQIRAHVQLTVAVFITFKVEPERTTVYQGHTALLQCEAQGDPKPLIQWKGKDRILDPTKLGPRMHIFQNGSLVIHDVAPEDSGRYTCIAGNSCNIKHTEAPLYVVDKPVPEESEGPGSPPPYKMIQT

T2: Human PTK7 Protein, His Tag (Acro Biosystems) (human, UniProt Q13308 31-704)
T2 construct: Bought His-tagged protein; also called CCK4; not shown: His tag
T2 sequence: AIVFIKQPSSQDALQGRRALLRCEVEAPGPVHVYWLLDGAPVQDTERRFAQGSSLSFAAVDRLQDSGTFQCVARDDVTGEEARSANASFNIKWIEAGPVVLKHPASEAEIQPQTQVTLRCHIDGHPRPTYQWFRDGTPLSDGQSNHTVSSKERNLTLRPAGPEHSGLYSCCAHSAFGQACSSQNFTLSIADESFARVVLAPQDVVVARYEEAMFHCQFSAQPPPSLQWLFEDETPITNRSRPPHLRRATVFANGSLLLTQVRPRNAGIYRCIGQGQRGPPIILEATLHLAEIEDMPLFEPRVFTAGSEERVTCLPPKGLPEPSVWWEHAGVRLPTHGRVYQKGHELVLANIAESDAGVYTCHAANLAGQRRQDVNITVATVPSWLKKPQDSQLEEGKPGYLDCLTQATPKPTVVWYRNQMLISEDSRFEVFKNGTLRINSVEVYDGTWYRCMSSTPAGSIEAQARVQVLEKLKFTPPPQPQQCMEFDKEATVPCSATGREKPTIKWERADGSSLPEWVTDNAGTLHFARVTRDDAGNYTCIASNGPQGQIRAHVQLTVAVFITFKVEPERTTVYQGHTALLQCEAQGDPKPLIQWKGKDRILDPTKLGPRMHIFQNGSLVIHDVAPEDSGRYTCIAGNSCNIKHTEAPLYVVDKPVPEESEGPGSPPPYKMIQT

B1: MYT11102 (antibody, V domains shown)
VH: EVQLVESGGGLVQPGGSLRLSCTASHFSLSTYAMSWVRQAPGKGLEWVGMIYINDNTYYASWAKGRFTISRDTSKNTVYLQMNSLRAEDTAVYFCARDIGISYYIGVSLWGQGTLVTVSS
VL: EIVMTQSPSTLSASVGDRVIITCQASQSIGTRLSWYQQKPGKAPKLLIYGASKLATGVPSRFSGSGSGAEFTLTISSLQPDDFATYYCLGEYSYTTTDGIAFGQGTKLTVL
notes: MYT9412 HC variant
B2: MYT11124 (antibody, V domains shown)
VH: EVQLVESGGGLVQPGGSLRLSCTASGFSLSTYAMSWVRQAPGKGLEWVGMIYINDNTYYASHAKGRFTISRDTSKNTVYLQMNSLRAEDTAVYFCARDIGISYYIGVSLWGQGTLVTVSS
VL: EIVMTQSPSTLSASVGDRVIITCQASQSIGTRLSWYQQKPGKAPKLLIYGASKLATGVPSRFSGSGSGAEFTLTISSLQPDDFATYYCLGEYSYTTTDGIAFGQGTKLTVL
notes: MYT9412 HC variant
B3: MYT11104 (antibody, V domains shown)
VH: EVQLVESGGGLVQPGGSLRLSCTASGFHLSTYAMSWVRQAPGKGLEWVGMIYINDNTYYASWAKGRFTISRDTSKNTVYLQMNSLRAEDTAVYFCARDIGISYYIGVSLWGQGTLVTVSS
VL: EIVMTQSPSTLSASVGDRVIITCQASQSIGTRLSWYQQKPGKAPKLLIYGASKLATGVPSRFSGSGSGAEFTLTISSLQPDDFATYYCLGEYSYTTTDGIAFGQGTKLTVL
notes: MYT9412 HC variant
B4: MYT11109 (antibody, V domains shown)
VH: EVQLVESGGGLVQPGGSLRLSCTASGFSLSTYHMSWVRQAPGKGLEWVGMIYINDNTYYASWAKGRFTISRDTSKNTVYLQMNSLRAEDTAVYFCARDIGISYYIGVSLWGQGTLVTVSS
VL: EIVMTQSPSTLSASVGDRVIITCQASQSIGTRLSWYQQKPGKAPKLLIYGASKLATGVPSRFSGSGSGAEFTLTISSLQPDDFATYYCLGEYSYTTTDGIAFGQGTKLTVL
notes: MYT9412 HC variant
B5: MYT11127 (antibody, V domains shown)
VH: EVQLVESGGGLVQPGGSLRLSCTASGFSLSTYAMSWVRQAPGKGLEWVGMIYINDNTYYASWAKHRFTISRDTSKNTVYLQMNSLRAEDTAVYFCARDIGISYYIGVSLWGQGTLVTVSS
VL: EIVMTQSPSTLSASVGDRVIITCQASQSIGTRLSWYQQKPGKAPKLLIYGASKLATGVPSRFSGSGSGAEFTLTISSLQPDDFATYYCLGEYSYTTTDGIAFGQGTKLTVL
notes: MYT9412 HC variant
B6: MYT11113 (antibody, V domains shown)
VH: EVQLVESGGGLVQPGGSLRLSCTASGFSLSTYAMSWVRQAPGKGLEWVGMHYINDNTYYASWAKGRFTISRDTSKNTVYLQMNSLRAEDTAVYFCARDIGISYYIGVSLWGQGTLVTVSS
VL: EIVMTQSPSTLSASVGDRVIITCQASQSIGTRLSWYQQKPGKAPKLLIYGASKLATGVPSRFSGSGSGAEFTLTISSLQPDDFATYYCLGEYSYTTTDGIAFGQGTKLTVL
notes: MYT9412 HC variant
B7: MYT11129 (antibody, V domains shown)
VH: EVQLVESGGGLVQPGGSLRLSCTASGFSLSTYAMSWVRQAPGKGLEWVGMIYINDNTYYASWAKGRFTISRDTSKNTVYLQMNSLRAEDTAVYFCAHDIGISYYIGVSLWGQGTLVTVSS
VL: EIVMTQSPSTLSASVGDRVIITCQASQSIGTRLSWYQQKPGKAPKLLIYGASKLATGVPSRFSGSGSGAEFTLTISSLQPDDFATYYCLGEYSYTTTDGIAFGQGTKLTVL
notes: MYT9412 HC variant
B8: MYT11122 (antibody, V domains shown)
VH: EVQLVESGGGLVQPGGSLRLSCTASGFSLSTYAMSWVRQAPGKGLEWVGMIYINDNTYYHSWAKGRFTISRDTSKNTVYLQMNSLRAEDTAVYFCARDIGISYYIGVSLWGQGTLVTVSS
VL: EIVMTQSPSTLSASVGDRVIITCQASQSIGTRLSWYQQKPGKAPKLLIYGASKLATGVPSRFSGSGSGAEFTLTISSLQPDDFATYYCLGEYSYTTTDGIAFGQGTKLTVL
notes: MYT9412 HC variant
B9: MYT11126 (antibody, V domains shown)
VH: EVQLVESGGGLVQPGGSLRLSCTASGFSLSTYAMSWVRQAPGKGLEWVGMIYINDNTYYASWAHGRFTISRDTSKNTVYLQMNSLRAEDTAVYFCARDIGISYYIGVSLWGQGTLVTVSS
VL: EIVMTQSPSTLSASVGDRVIITCQASQSIGTRLSWYQQKPGKAPKLLIYGASKLATGVPSRFSGSGSGAEFTLTISSLQPDDFATYYCLGEYSYTTTDGIAFGQGTKLTVL
notes: MYT9412 HC variant
B10: MYT11110 (antibody, V domains shown)
VH: EVQLVESGGGLVQPGGSLRLSCTASGFSLSTYAHSWVRQAPGKGLEWVGMIYINDNTYYASWAKGRFTISRDTSKNTVYLQMNSLRAEDTAVYFCARDIGISYYIGVSLWGQGTLVTVSS
VL: EIVMTQSPSTLSASVGDRVIITCQASQSIGTRLSWYQQKPGKAPKLLIYGASKLATGVPSRFSGSGSGAEFTLTISSLQPDDFATYYCLGEYSYTTTDGIAFGQGTKLTVL
notes: MYT9412 HC variant
B11: MYT11118 (antibody, V domains shown)
VH: EVQLVESGGGLVQPGGSLRLSCTASGFSLSTYAMSWVRQAPGKGLEWVGMIYINDHTYYASWAKGRFTISRDTSKNTVYLQMNSLRAEDTAVYFCARDIGISYYIGVSLWGQGTLVTVSS
VL: EIVMTQSPSTLSASVGDRVIITCQASQSIGTRLSWYQQKPGKAPKLLIYGASKLATGVPSRFSGSGSGAEFTLTISSLQPDDFATYYCLGEYSYTTTDGIAFGQGTKLTVL
notes: MYT9412 HC variant
B12: MYT11135 (antibody, V domains shown)
VH: EVQLVESGGGLVQPGGSLRLSCTASGFSLSTYAMSWVRQAPGKGLEWVGMIYINDNTYYASWAKGRFTISRDTSKNTVYLQMNSLRAEDTAVYFCARDIGISHYIGVSLWGQGTLVTVSS
VL: EIVMTQSPSTLSASVGDRVIITCQASQSIGTRLSWYQQKPGKAPKLLIYGASKLATGVPSRFSGSGSGAEFTLTISSLQPDDFATYYCLGEYSYTTTDGIAFGQGTKLTVL
notes: MYT9412 HC variant
B13: MYT11123 (antibody, V domains shown)
VH: EVQLVESGGGLVQPGGSLRLSCTASGFSLSTYAMSWVRQAPGKGLEWVGMIYINDNTYYAHWAKGRFTISRDTSKNTVYLQMNSLRAEDTAVYFCARDIGISYYIGVSLWGQGTLVTVSS
VL: EIVMTQSPSTLSASVGDRVIITCQASQSIGTRLSWYQQKPGKAPKLLIYGASKLATGVPSRFSGSGSGAEFTLTISSLQPDDFATYYCLGEYSYTTTDGIAFGQGTKLTVL
notes: MYT9412 HC variant
B14: MYT11119 (antibody, V domains shown)
VH: EVQLVESGGGLVQPGGSLRLSCTASGFSLSTYAMSWVRQAPGKGLEWVGMIYINDNHYYASWAKGRFTISRDTSKNTVYLQMNSLRAEDTAVYFCARDIGISYYIGVSLWGQGTLVTVSS
VL: EIVMTQSPSTLSASVGDRVIITCQASQSIGTRLSWYQQKPGKAPKLLIYGASKLATGVPSRFSGSGSGAEFTLTISSLQPDDFATYYCLGEYSYTTTDGIAFGQGTKLTVL
notes: MYT9412 HC variant
B15: MYT11121 (antibody, V domains shown)
VH: EVQLVESGGGLVQPGGSLRLSCTASGFSLSTYAMSWVRQAPGKGLEWVGMIYINDNTYHASWAKGRFTISRDTSKNTVYLQMNSLRAEDTAVYFCARDIGISYYIGVSLWGQGTLVTVSS
VL: EIVMTQSPSTLSASVGDRVIITCQASQSIGTRLSWYQQKPGKAPKLLIYGASKLATGVPSRFSGSGSGAEFTLTISSLQPDDFATYYCLGEYSYTTTDGIAFGQGTKLTVL
notes: MYT9412 HC variant
B16: MYT11116 (antibody, V domains shown)
VH: EVQLVESGGGLVQPGGSLRLSCTASGFSLSTYAMSWVRQAPGKGLEWVGMIYIHDNTYYASWAKGRFTISRDTSKNTVYLQMNSLRAEDTAVYFCARDIGISYYIGVSLWGQGTLVTVSS
VL: EIVMTQSPSTLSASVGDRVIITCQASQSIGTRLSWYQQKPGKAPKLLIYGASKLATGVPSRFSGSGSGAEFTLTISSLQPDDFATYYCLGEYSYTTTDGIAFGQGTKLTVL
notes: MYT9412 HC variant
B17: MYT11125 (antibody, V domains shown)
VH: EVQLVESGGGLVQPGGSLRLSCTASGFSLSTYAMSWVRQAPGKGLEWVGMIYINDNTYYASWHKGRFTISRDTSKNTVYLQMNSLRAEDTAVYFCARDIGISYYIGVSLWGQGTLVTVSS
VL: EIVMTQSPSTLSASVGDRVIITCQASQSIGTRLSWYQQKPGKAPKLLIYGASKLATGVPSRFSGSGSGAEFTLTISSLQPDDFATYYCLGEYSYTTTDGIAFGQGTKLTVL
notes: MYT9412 HC variant
B18: MYT11099 (antibody, V domains shown)
VH: EVQLVESGGGLVQPGGSLRLSCTASGLSLSSYWMSWVRQAPGKGLEWVGVISAGGNTYYANWAKGRFTISRDTSKNTVYLQMNSLRAEDTAVYFCARGDDGYTNAAYVSNLWGQGTLVTVSS
VL: EIVMTQSPSTLSASVGDRVIITCQASQSISSWLSWYQQKPGKAPKLLIYKASTLASGVPSRFSGSGSGAEFTLTISSLQPDDFATYYCQSYFDSTTIHFGQGTKLTVL
notes: MYT9361 LC variant

These binders were tested against T1, Human PTK7 Protein, His Tag, Acro … (assay: BLI, anti-human Fc capture, 50 nM PTK7; 2 = substantially similar binding relative to parent).

Binding result, binds:
B1
B2
B3
B4
B5
B6
B7
B8
B9
B10
B11
B12
B13
B14
B15
B16
B17

Each binder was assayed against T2, Human PTK7 Protein, His Tag (Acro …) (assay: BLI (Octet), antibody on anti-human Fc sensor, 50 nM PTK7; grade 2 = substantially similar binding relative to parent).

Binding result, binds:
B18

Reference: patent US20260209386A1 (MYTHIC THERAPEUTICS, published 2026)
